To fix the notation:
B1: 75110_01L08A (antibody, V domains shown)
VH: QVQLQESGPGLVKPSETLSLTCTVSGGSISHYYWSWIRQPPGKGLEWIGYIHYSGTTNYNPSLKSRVTISVDTSKNQLSLKLRSVTAADTAVYYCARDQGFSSGGMDVWGQGTTVTVSS
VL: not shown
notes: Tested as antibody purified from AlivaMab Mouse hybridoma supernatant (captured by anti-mouse IgG Fc)
B2: 75110_01J09A (antibody, V domains shown)
VH: EVQLVESGGGLVQPGGSLRLSCVASGFTFSSYWMSWVRQAPGKGLEWVANTKEDGSDKYYVDSVKGRFTICRDNAKNSLYLQMNSLRAEDTAVYYCAREGGQWLALDYWGQGTLVTVSS
VL: DIQMTQSPSSVSASVGDRVTINCRASQGISSWLAWYQQKPGKAPNLLIFGASSLQSGVPSRFSGSGFGTDFSLTITTLQPEDFATYHCQQANSFPWTFGQGTKVEIK
notes: as for B1
B3: 75110_02E08A (antibody, V domains shown)
VH: QVQLQESGPGLVKPSETLSLTCTVSGGSISTYYWTWIRQPAGKGLEWIGRVYTSGDTNYNPSLKSRVAMSLDTSKNQFSLKLSSVTAADTAVYYCARDSGALYSWNYGDAFDIWGQGTMVTVSS
VL: DIQMTQSPSAMSASVGDRVTITCRASQDISNYLAWFQQKPGKVPKRLIYAASSLQSGVPSRFSGSGSGTEFTLTISSLQPEDFATYYCLQHNSYPRTFGQGTKVEIK
notes: as for B1
B4: 75110_04B08A (antibody, V domains shown)
VH: QVQLVESGGGVVQPGRSLRLSCTASGFNFINYGIHWVRQAPGKGLEWVTIIWYDGSKKYYADSVKGRFAISRDNSKNTLYLQMNSLRAEDTAVYYCAREDDWNDGLAYWGQGTLVTVSS
VL: AIQMTQSPSSLSASVGDRVTITCRASQDIRNDLGWYQQKPGKAPNLLIYAASNLQSGVPSRFSGSGSGTDFTLTISSLQPEDFATYYCLQDSNYPRTFGQGTKVEIK
notes: as for B1
B5: 75110_02E22A (antibody, V domains shown)
VH: QVQLQESGPGLVKPSETLSLTCTVSGGSISSFYWSWIRQPAGKGLEWIGRIYTSGSTNYNPSLKSRVTMSVDTSKNQFSLKLSSVTAADTAVYYCARELEKRNYYGMDVWGQGTTVTVSS
VL: DIQMTQSPSSLSASVGDRVTITCQASHDISNYLNWYQQKPGKAPKLLIFDASTLETGVPSRFSGSGSGTYFTFTIRSLQPEDIATYYCQQYDSLPLTFGGGTKVEIK
notes: as for B1
B6: 75110_04H17A (antibody, V domains shown)
VH: QVQLQESGPGLVKPSETLSLTCTVSGGSISTYYWSWIRQSAGKGLEWIGRIYTSERPNYNPSLKSRVTMSVDTSKNQFSLKLNSVSAADTAVYYCARELERPYYYGMDVWGQGTTVTVSS
VL: B5 VL with I2V, D17G, H27Q, F49Y, D50Y, T53N, Y70D, R76S, I83F, S93N
notes: as for B1
B7: 75110_04D20A (antibody, V domains shown)
VH: B5 VH with G26N, S31D, F32Y, V67I, K81E, K101R, R102Y, N103Y, Y104F, M107V
VL: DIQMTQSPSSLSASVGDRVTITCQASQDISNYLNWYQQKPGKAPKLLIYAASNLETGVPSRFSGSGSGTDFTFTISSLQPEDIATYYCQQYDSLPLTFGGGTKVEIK
notes: as for B1
B8: 75110_01K10A (antibody, V domains shown)
VH: EVQLVESGGALVQPGGSLRLSCAASGFTFRNYDMHWVRQATGKGLEWVSTIGTAGDTYYPGSVKGRFTISRENAKNSLYLQMNSLRAGDTAVYYCARGGDYYYGMDVWGQGTTVTVSS
VL: EIVLTQSPDTLSLSPGERATLSCRASQSLSSVYLAWYQQKPGQAPRLLIYGASSRATGIPDRFSGTGSGTDFTLTISRLEPEDFAVYYCQQYGSSPFTFGPGTKVDIK
notes: as for B1
B9: 75110_04G16A (antibody, V domains shown)
VH: QVQLQESGPGLVKPSQTLSLTCTVSGDSISSGYYYWSWIRQHPGKGLEWIGYISYSGSTYYNPSLKSRLTISVNTSKNQFSLKLSSLTAADTAVYYCARDRPSNFDAFDIWGQGTMVTVSS
VL: B8 VL with D9G, L29V, S30G, V32T, S53F, T66S, F97L
notes: as for B1
B10: 75110_02I18A (antibody, V domains shown)
VH: B8 VH with L4V, A10G, R30S, N31S, D100Y
VL: B8 VL with D9G, L29V, V32S, A44S, Y50H, F63V, T66S
notes: as for B1
B11: 75110_05F19A (antibody, V domains shown)
VH: B8 VH with A10G, R30S, M34V, A40P, D100Y, Y101D, M105L
VL: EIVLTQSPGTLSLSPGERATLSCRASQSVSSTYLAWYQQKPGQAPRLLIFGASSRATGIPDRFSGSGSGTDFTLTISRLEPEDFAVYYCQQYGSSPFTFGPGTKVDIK
notes: as for B1
B12: 75110_01N04A (antibody, V domains shown)
VH: B8 VH with A10G, R30S, Y101F, M105L
VL: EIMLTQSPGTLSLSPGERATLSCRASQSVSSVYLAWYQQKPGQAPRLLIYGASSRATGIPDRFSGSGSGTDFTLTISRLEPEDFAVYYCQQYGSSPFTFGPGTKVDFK
notes: as for B1
B13: 75110_04P06A (antibody, V domains shown)
VH: B8 VH with A10G, R30S
VL: B8 VL with T66S, S77N, A85V
notes: as for B1
B14: 75110_04G02A (antibody, V domains shown)
VH: not shown
VL: DIVMTQSPDSLAVSLGERATINCKSSQSVLYSSNNKNYLAWYQQKPGQPPKLLFYWASARESGVPDRFSGSGSGTDFTLTISSLQAEDVALYYCQQYFGSFPTFGQGTKLEIK
notes: as for B1
B15: 75110_03I23A (antibody, V domains shown)
VH: QVQLQESGPGLVKPSETLSLTCTASGGSITSYYWNWIRQPAGKGLEWIGRIYTSGSTNYNPSLKSRVTMSVDTSKNQFSLKLSSVTAADTAVYYCARDPGYSDAFNIWGQGTMVTVSS
VL: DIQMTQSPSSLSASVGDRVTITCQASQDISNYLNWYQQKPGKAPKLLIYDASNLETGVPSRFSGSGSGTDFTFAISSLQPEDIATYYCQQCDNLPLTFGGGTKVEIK
notes: as for B1
B16: 75110_01H18A (antibody, V domains shown)
VH: QVQLQQWGAGLLKPSETLSLTCAVYGGSFSGYYWSWIRQSPGKGLEWIGEINQSGSTNYNPSLKSRVTISVDTSKNQFSLKLSSVTAADTAVYYCARVINWFDSWGQGTLVTVSS
VL: DIQMTQSPSSVSASVGDRVTITCRASQGISSWLAWYQQKPGKAPKLLIYAASSFQSGVPSRFSGSGSGTDFTLTISSLQTEDFATYYCQQANSFPYTFGQGTRLEIK
notes: as for B1
B17: 75110_04P08A (antibody, V domains shown)
VH: B16 VH with F29L, N76D, K81R, S83T, A96T, I99L, S104P, Q107R
VL: B16 VL with I21L, G28D, S31N, F54L, R103K
notes: as for B1
B18: 75110_03C01A (antibody, V domains shown)
VH: B16 VH with N76D, T109S
VL: B16 VL with K42N, A50D, R103K
notes: as for B1
B19: 75110_02I16A (antibody, V domains shown)
VH: QVQLQQWGAGLLKPSETLSLTCDVYGGSFSGYYWTWIRQPPGKGLEWIGEINHSGTTNSNPSLKSRVTISVDTSKSQFSLRLSSVTAADTAVYFCTRELNWFDPWGQGTLVTVSS
VL: DIQMTQSPSSVSASVGDRVTITCRASQDIANWLAWYQQKPGKAPQLLIYAASSLLGGVPSRFSGSGSGADFTLTISSLHPEDFATYYCQQANSFPYTFGQGTKLEIK
notes: as for B1
B20: 75110_02K11A (antibody, V domains shown)
VH: B9 VH with D27G, Y33F, S37T, S58N, L65F, N74D, N78S, L87V
VL: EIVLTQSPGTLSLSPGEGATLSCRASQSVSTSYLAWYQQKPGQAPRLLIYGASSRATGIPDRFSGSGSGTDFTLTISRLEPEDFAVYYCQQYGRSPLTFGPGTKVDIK
notes: as for B1
B21: 75110_03I08A (antibody, V domains shown)
VH: QVQLQESGPGLVKPSETLSLTCTVSGGSISSYYWSWIRQPPGKGLEWIGYIYYSGSTNYNPSLKSRVTISVDTSKNQFSLKLSSVTAADTAVYYCAREGEQWFYGLDVWGQGTTVTVSS
VL: EIVLTQSPGTLSLSPGERATLSCRASQSVSSTYLAWYQQKPGQAPRLLIYGSSSRATGIPDRFSGSGSGTDFTLTISRLEPEDFAVYYCQQYGNSFPITFGQGTRLEIK
notes: as for B1

Positions count from the first letter of the chain named.

The experiment has as its target T1, Recombinant human CD4 (R&D Systems, Cat. 10327-CD) (human, UniProt P01730 26-390, limits assumed).
T1 construct: Soluble analyte in the Octet assay
Put plainly: BLI Octet, mAb on anti-mouse Fc sensor, CD4 100/50/25 nM, 1:1 global fit.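 Note: antibodies loaded at 10 µg/mL, an unrelated mouse-derived antibody served as internal reference control, association and dissociation phases fitted after Savitzky-Golay smoothing.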
For the molecule B1, the Kd stood at 4.1 nM, the Response is 0.19, the koff was 0.0016 s⁻¹ and the kon came out at 390000 M⁻¹ s⁻¹.
For B2, the Kd is 130 nM, the Response came out at 0.12, the koff was 0.0048 s⁻¹ and the kon is 37000 M⁻¹ s⁻¹.
Regarding B3, the Kd is 2.2 nM, the Response is 0.11, the koff turned out to be 0.00061 s⁻¹ and the kon came to 280000 M⁻¹ s⁻¹.
For the molecule B4, the Kd stood at 17 nM, the Response came out at 0.25, the koff came out at 0.0037 s⁻¹ and the kon is 220000 M⁻¹ s⁻¹.
For the molecule B5, the Kd was 50 nM, the Response came out at 0.16, the koff worked out at 0.0031 s⁻¹ and the kon amounted to 63000 M⁻¹ s⁻¹.
Take B6: the Kd was determined as 0.25 nM, the Response was 0.15, the off-rate constant (koff) was 1.8e-05 s⁻¹ and the kon turned out to be 73000 M⁻¹ s⁻¹.
The matching figures for B7: 8.9 nM, 0.14, 0.0008 s⁻¹ and 90000 M⁻¹ s⁻¹.
Consider B8, for which the Kd was below 0.001 nM, the Response was 0.05, the off-rate constant (koff) was below 1e-07 s⁻¹ and the kon amounted to 23000 M⁻¹ s⁻¹.
Take B9: the Kd worked out at 5.3 nM, the Response was found to be 0.23, the koff was determined as 0.00047 s⁻¹ and the kon was 89000 M⁻¹ s⁻¹.
For B10, the dissociation constant Kd came out at 66 nM, the Response came to 0.05, the koff turned out to be 8.6e-05 s⁻¹ and the on-rate (kon) was 1300 M⁻¹ s⁻¹.
Take B11: the equilibrium dissociation constant (Kd) was below 0.001 nM, the Response is 0.05, the koff is below 1e-07 s⁻¹ and the on-rate (kon) turned out to be 19000 M⁻¹ s⁻¹.
For the molecule B12, the Kd was found to be 2.1 nM, the Response was 0.08, the off-rate (koff) was determined as 6.1e-05 s⁻¹ and the kon was determined as 28000 M⁻¹ s⁻¹.
In the case of B13, the Kd is below 0.001 nM, the Response turned out to be 0.07, the koff is below 1e-07 s⁻¹ and the kon came to 24000 M⁻¹ s⁻¹.
B14: the Kd turned out to be 16 nM, the Response worked out at 0.17, the koff was 0.0015 s⁻¹ and the kon came out at 90000 M⁻¹ s⁻¹.
On to B15, for which the dissociation constant (Kd) is below 0.001 nM, the Response is 0.18, the koff is below 1e-07 s⁻¹ and the on-rate constant (kon) came to 80000 M⁻¹ s⁻¹.
The matching figures for B16: 16 nM, 0.23, 0.0016 s⁻¹ and 99000 M⁻¹ s⁻¹.
With B17, the Kd amounted to 3.6 nM, the Response was 0.23, the koff stood at 0.0005 s⁻¹ and the kon was found to be 140000 M⁻¹ s⁻¹.
The matching figures for B18: 3 nM, 0.23, 0.0004 s⁻¹ and 140000 M⁻¹ s⁻¹.
For B19, the Kd was determined as 3.5 nM, the Response was 0.22, the dissociation rate constant (koff) worked out at 0.0004 s⁻¹ and the association rate constant (kon) came to 120000 M⁻¹ s⁻¹.
The matching figures for B20: 19 nM, 0.11, 0.0014 s⁻¹ and 74000 M⁻¹ s⁻¹.
The matching figures for B21: 8.8 nM, 0.14, 0.0011 s⁻¹ and 130000 M⁻¹ s⁻¹.

The term Kd denotes the free concentration of one partner at which half of the binding sites on the other are occupied at equilibrium, for simple one-to-one binding. By koff is commonly meant the rate constant with which the complex falls apart. The kon is the rate constant with which the complex forms.

(Values after US20220112288A1 (published 2022).)
